Publication PMC8857482

T1: Csy complex (type I-F surveillance complex: Cas8f, Cas5f, Cas7f, Cas6f + crRNA) (Pseudomonas aeruginosa, UniProt Q02ML9;Q02MM0;Q02MM1;Q02MM2 1-434;1-327;1-342;1-187)
T1 sequence 1: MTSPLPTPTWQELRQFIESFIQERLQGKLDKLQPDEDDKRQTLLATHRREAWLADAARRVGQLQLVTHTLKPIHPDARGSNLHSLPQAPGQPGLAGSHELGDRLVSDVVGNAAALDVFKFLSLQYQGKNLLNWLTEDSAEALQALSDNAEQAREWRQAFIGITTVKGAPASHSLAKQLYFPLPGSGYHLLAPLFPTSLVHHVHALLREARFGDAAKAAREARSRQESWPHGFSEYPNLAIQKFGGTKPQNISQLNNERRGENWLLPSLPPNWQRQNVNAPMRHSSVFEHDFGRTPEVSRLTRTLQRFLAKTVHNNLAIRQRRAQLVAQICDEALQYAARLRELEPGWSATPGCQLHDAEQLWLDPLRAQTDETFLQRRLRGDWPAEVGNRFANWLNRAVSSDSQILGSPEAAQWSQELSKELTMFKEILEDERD
T1 sequence 2: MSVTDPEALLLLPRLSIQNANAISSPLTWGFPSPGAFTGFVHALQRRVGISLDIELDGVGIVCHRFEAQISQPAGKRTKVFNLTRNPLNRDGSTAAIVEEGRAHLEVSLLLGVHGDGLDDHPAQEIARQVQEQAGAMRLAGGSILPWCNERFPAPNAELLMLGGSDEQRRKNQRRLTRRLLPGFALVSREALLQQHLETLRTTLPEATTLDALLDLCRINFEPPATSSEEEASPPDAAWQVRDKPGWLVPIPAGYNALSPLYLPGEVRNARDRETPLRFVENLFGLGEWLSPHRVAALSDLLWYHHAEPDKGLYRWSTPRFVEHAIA
T1 sequence 3: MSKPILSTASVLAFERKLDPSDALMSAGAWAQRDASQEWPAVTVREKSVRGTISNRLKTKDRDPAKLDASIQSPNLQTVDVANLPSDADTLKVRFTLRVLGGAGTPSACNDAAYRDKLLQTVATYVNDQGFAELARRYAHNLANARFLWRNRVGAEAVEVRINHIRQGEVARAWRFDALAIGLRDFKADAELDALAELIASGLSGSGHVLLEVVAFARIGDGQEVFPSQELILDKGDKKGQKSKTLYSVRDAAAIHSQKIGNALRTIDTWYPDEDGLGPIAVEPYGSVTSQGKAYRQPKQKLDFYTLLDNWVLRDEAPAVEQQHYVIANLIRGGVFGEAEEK
T1 sequence 4: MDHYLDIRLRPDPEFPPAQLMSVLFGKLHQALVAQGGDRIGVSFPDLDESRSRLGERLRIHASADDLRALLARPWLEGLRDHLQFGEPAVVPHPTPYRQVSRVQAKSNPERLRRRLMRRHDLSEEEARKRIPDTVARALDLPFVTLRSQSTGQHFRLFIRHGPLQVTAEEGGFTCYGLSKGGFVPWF


target: T1, Csy complex (type I-F surveillance …); experiment: EMSA

Molecule	binding result
54 bp target dsDNA (dsDNA) DNA 1: GGAAGCCATCCAGGTAGACGCGGACATCAAGCCCGCCGTGAAGGTGCAGCTGCT DNA 2: AGCAGCTGCACCTTCACGGCGGGCTTGATGTCCGCGTCTACCTGGATGGCTTCC	binds

target: Csy complex with Cas7f (K58A/K60A) (Pseudomonas aeruginosa) (UniProt Q02ML9); experiment: MST

Molecule	Kd [µM]
AcrIF13 (natural protein)	0.0342

target: Csy complex with Cas8f (N250D) (Pseudomonas aeruginosa) (UniProt Q02ML9); experiment: MST

Molecule	Kd [µM]
AcrIF13 (natural protein)	0.647

target: type I-F CRISPR-Cas surveillance complex (Csy complex) (Pseudomonas aeruginosa) (UniProt Q02ML9); experiment: MST

Molecule	Kd [µM]
AcrIF13 D43K/D44K (natural protein)	0.00185
AcrIF13 E40K (natural protein)	0.00517
AcrIF13 E18K (natural protein)	0.00255
AcrIF13 E82K/E83K/D84K (natural protein)	0.00722
AcrIF13 D45K/D46K (natural protein)	0.00622
AcrIF13 E97K (natural protein)	0.0143
AcrIF13 D21K/E22K (natural protein)	0.0298
AcrIF13 E10K (natural protein)	0.0223
AcrIF13 D102K (natural protein)	0.00921
AcrIF13 D63K (natural protein)	0.0246
AcrIF13 E50K (natural protein)	0.0181
AcrIF13 (natural protein)	0.00151
AcrIF13 E57K (natural protein)	0.00539
AcrIF13 D113K (natural protein)	0.0677
